Measured values: patent US20030186329A1, “Use of substrate subtraction libraries to distinguish enzyme specificities” (The Scripps Research Institute, priority 1998, published 2003)

Substrate: CC(C)[C@H](NC(=O)[C@H](CO)NC(=O)CNC(=O)CNC(=O)[C@@H](NC(=O)[C@@H](NC(=O)[C@H](CCCNC(=N)N)NC(=O)CNC(=O)[C@@H]1CCCN1C(=O)[C@H](CO)NC(=O)[C@H](CCCCN)NC(=O)[C@@H](N)CCCCN)C(C)C)C(C)C)C(=O)N[C@@H](C)C(=O)N[C@@H](Cc1c[nH]cn1)C(=O)O
Assay: Kinetics of cleavage of synthetic peptides by t-PA (HPLC, Eadie-Hofstee analysis)
Type: biochemical
Settings: other: hydrolysis of peptide by t-PA
Description: Concentrations of functional t-PA and u-PA were measured by active site titration with 4-methylumbelliferyl p-guanidinobenzoate (Jameson, G., et al., (1973) Biochem. J. 131, 107-117) using a Perkin-Elmer LS 50B Luminescence Fluorometer as previously described (Madison, E. L., et al., (1995) J. Biol. Chem. 270: 7558-7562). In addition, the enzymes were titrated with a standard PAI-1 preparation that had been previously titrated against a trypsin primary standard. Total enzyme concentrations were measured by ELISA.
Individual phage stocks were prepared and digested with no enzyme, t-PA, u-PA, or u-PA in the presence of 1 mM amiloride, a specific inhibitor of u-PA. Kinetic-data were obtained by incubating various concentrations of peptide with a constant enzyme concentration to achieve between 5 and 20% cleavage of the peptide in each reaction. For assays with u-PA, enzyme concentration was either 815 or 635 nM. For assays with t-PA enzyme concentration was 700 nM. […] The buffer used in these assays has been described (Madison, E. L., et al., 1995). Reactions were stopped by addition of triflouroacetic acid to 0.33% or by freezing on dry ice. Cleavage of the 13 and 14 residue peptides was monitored by reverse phase HPLC as described (Madison, E. L., et al., 1995). The 4-6 residue peptides were acylated at their amino termini and amidated at their carboxyl termini. Cleavage of the 4-6 residue peptides was monitored by hydrophilic interaction HPLC chromatography (HILIC) (Alpert, A. J. (1990) J. Chromatog. 499, 177-196.) using a polyhydroxyaspartamine column from PolyLC (Columbia, Md.). Buffer A was 50 mM triethylamine phosphate in 10% acetonitrile and buffer B was 10 mM triethylamine phosphate in 80% acetonitrile. Peptides were eluted by a gradient which was varied from 100% Buffer B to 100% Buffer A during a 13 minute interval. The percent of cleaved peptide was calculated by dividing the area under the product peaks by the total area under substrate and product peaks. […] Errors were determined as described (Taylor, J. R., 1982) An introduction to error analysis. […]

B1: t-PA (Homo sapiens) (protein)
chain: SYQVICRDEKTQMIYQQHQSWLRPVLRSNRVEYCWCNSGRAQCHSVPVKSCSEPRCFNGGTCQQALYFSDFVCQCPEGFAGKCCEIDTRATCYEDQGISYRGTWSTAESGAECTNWNSSALAQKPYSGRRPDAIRLGLGNHNYCRNPDRDSKPWCYVFKAGKYSSEFCSTPACSEGNSDCYFGNGSAYRGTHSLTESGASCLPWNSMILIGKVYTAQNPSAQALGLGKHNYCRNPDGDAKPWCHVLKNRRLTWEYCDVPSCSTCGLRQYSQPQFRIKGGLFADIASHPWQAAIFAKHRRSPGERFLCGGILISSCWILSAAHCFQERFPPHHLTVILGRTYRVVPGEEEQKFEVEKYIVHKEFDDDTYDNDIALLQLKSDSSRCAQESSVVRTVCLPPADLQLPDWTECELSGYGKHEALSPFYSERLKEAHVRLYPSSRCTSQHLLNRTVTDNMLCAGDTRSGGPQANLHDACQGDSGGPLVCLNDGRMTLVGIISWGLGCGQKDVPGVYTKVTNYLDWIRDNMRP
Km: 15 mM | kcat: 0.0043 s⁻¹ | kcat/Km: 0.29 M⁻¹ s⁻¹
